Data: paper PMC10400651, “Gain-of-function mutant p53 together with ERG proto-oncogene drive prostate cancer by beta-catenin activation and pyrimidine synthesis”

Biological target: p53 WT (UniProt P04637 1-393)
Assay: EMSA; Thermo EMSA kit (20148) protocol; 6% native PAGE; supershift with 1 ug anti-p53 for 1 h at room temperature; recombinant p53 eluted in PBS; buffer, salt and pH
Conditions: protein: recombinant; tags: untagged after thrombin cleavage of GST; chain copies: 4; label: biotin; blunt

p53 WT, sequence (P04637 whole entry): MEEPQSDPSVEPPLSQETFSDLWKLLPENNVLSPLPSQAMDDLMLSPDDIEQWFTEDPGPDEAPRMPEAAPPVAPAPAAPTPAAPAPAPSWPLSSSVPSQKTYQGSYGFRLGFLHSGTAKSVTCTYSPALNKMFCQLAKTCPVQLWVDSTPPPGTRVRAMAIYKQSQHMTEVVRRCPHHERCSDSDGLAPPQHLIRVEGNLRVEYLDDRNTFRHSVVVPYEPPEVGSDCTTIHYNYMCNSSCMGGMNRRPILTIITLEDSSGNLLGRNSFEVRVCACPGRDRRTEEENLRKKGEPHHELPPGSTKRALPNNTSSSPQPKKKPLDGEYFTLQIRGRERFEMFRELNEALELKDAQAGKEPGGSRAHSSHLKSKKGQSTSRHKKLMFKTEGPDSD

B1: CTNNB1-probe1 (MP53BS) (dsDNA)
DNA 1: GCCCCCTCGCGCCCCGCCCCTTGTC
DNA 2: GACAAGGGGCGGGGCGCGAGGGGGC
Q: Does B1 bind?
A: no binding
